According to the supplement of paper PMC6379048:

Tests used:
Test in all cases: Kd (EC50 corrected by depletion factor)
ERI3 = target: T1, ERI3 (UniProt O43414)
T1 sequence: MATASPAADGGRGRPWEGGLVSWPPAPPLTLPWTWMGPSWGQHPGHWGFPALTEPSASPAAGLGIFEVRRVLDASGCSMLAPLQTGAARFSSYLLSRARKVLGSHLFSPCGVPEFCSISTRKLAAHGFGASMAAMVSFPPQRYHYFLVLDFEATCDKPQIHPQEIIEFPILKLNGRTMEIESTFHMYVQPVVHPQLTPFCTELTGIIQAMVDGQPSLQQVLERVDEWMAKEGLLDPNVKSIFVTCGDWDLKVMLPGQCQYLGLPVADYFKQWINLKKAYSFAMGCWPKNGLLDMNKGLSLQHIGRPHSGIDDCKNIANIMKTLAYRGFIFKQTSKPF
Procedure, shortened: (§1)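 HEK293-FT lysate (2.5 mg protein/well) was pre-incubated 1 h at 4°C with free RNA oligos (0 nM to 30 μM), then 30 min at 4°C with the same 5′-amino-C6 oligos coupled to NHS-Sepharose beads. Bound proteins were quantified by label-free LC-MS/MS in three biological replicates and two independent experiments, and normalised to the water control. EC50 came from a four-parameter log-logistic fit; Kd is EC50 times a protein-dependent depletion factor.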

HNRNPR = target: T2, HNRNPR (UniProt O43390)
T2 sequence: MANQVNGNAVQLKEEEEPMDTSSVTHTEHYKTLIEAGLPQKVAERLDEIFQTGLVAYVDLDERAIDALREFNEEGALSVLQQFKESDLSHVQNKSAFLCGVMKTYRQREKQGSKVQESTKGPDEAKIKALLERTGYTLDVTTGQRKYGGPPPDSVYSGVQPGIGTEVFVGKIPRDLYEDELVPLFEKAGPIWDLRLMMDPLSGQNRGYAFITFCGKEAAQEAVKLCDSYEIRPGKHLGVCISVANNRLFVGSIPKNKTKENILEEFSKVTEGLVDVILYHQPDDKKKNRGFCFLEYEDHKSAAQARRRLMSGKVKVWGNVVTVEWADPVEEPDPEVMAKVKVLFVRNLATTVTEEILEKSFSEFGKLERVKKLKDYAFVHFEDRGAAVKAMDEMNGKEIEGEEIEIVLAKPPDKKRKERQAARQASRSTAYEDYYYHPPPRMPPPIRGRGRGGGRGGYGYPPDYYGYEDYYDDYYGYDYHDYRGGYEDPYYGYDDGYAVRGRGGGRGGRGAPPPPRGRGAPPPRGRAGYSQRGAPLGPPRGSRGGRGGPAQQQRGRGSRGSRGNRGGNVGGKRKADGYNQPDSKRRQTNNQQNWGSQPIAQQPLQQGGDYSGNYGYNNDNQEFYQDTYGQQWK
Procedure, shortened: as §1

CSTF2T = target: T3, CSTF2T (UniProt Q9H0L4)
T3 sequence: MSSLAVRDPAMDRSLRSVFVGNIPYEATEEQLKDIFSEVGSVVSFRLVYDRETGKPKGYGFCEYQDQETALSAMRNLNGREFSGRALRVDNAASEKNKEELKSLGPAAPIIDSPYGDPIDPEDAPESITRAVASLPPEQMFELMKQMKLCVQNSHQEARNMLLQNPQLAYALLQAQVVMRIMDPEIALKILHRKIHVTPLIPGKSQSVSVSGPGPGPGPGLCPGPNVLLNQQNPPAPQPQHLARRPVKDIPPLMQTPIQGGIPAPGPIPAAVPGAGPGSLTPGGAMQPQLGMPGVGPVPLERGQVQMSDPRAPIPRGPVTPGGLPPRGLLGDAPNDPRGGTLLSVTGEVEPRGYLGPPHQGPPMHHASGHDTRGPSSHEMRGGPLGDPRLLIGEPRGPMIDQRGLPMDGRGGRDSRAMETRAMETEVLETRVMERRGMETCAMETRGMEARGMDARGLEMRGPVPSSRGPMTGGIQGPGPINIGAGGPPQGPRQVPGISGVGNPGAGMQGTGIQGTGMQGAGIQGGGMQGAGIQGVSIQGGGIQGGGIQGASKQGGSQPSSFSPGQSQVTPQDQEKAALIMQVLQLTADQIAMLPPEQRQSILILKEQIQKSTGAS
Procedure, shortened: as §1

MRPS7 = MRPS7 (UniProt Q9Y2R9)
Procedure, shortened: as §1

PLOD1 = target: T4, PLOD1 (UniProt Q02809)
T4 sequence: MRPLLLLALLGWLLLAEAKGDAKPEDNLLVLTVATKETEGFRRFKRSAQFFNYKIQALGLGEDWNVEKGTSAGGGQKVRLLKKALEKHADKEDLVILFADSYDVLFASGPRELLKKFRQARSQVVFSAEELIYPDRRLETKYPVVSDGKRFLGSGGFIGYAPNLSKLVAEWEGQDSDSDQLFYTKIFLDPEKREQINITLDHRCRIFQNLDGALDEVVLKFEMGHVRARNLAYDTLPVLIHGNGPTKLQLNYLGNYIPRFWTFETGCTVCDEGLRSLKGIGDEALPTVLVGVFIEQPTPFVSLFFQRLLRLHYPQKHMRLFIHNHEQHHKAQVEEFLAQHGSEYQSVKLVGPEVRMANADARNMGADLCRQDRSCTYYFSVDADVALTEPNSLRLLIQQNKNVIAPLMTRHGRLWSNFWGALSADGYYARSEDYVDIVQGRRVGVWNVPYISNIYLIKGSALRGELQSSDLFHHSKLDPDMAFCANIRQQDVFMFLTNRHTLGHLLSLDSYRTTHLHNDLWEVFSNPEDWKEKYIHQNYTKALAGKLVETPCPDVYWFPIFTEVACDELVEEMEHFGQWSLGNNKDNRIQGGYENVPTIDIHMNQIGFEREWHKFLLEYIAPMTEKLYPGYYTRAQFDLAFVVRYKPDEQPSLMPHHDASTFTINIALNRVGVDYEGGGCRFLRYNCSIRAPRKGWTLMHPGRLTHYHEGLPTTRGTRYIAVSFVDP
Procedure, shortened: as §1

AAUAAA
Kd (ERI3): 173 nM
Kd (HNRNPR): 677 nM

UAUUUAU
Kd (CSTF2T): 257 nM
Kd (MRPS7): 29.4 nM
Kd (PLOD1): 4470 nM
